B1: huPrP23-231 (receptor)
chain: not shown
B2: ICSM-18 (antibody, V domains shown)
VH: EVQLQQSGPELVKPGSSVKISCKASRNTFTDYNLDWVKQSHGKTLEWIGNVYPNNGVTGYNQKFRGKATLTVDKSSSTAYMELHSLTSEDSAVYYCALYYYDVSYWGQGTLVTVSA
VL: QIVLTQSPAIMSASPGEKVTMTCSASSSVSYMHWYQQKSGTSPKRWIYDTSKLASGVPARFSGSGSGTSYSLTISSMEAEDAATYFCHQWRSNPYTFGGGTKLEIKR

Assay [1] addresses A[beta]-derived diffusible ligands (ADDL) prepared from A[beta]1-42 (UniProt P05067 672-713).
Assay [2] deals with bADDL preparation from biotinylated A[beta]1-42 (bA[beta]1-42) (UniProt P05067 672-713).
The target in assay [3] is B1.

One may read the Kd as the equilibrium constant for the complex coming apart. A low value points to a tighter complex. Usually Ki stands for the dissociation constant of the complex between target and ligand, obtained from inhibition or displacement.

In assay [1], B1 displayed a Kd of 100 nM. Moreover, in assay [2], binding was put at a Kd of 82 nM and the “fold tighter binding than huPrP91-231” value came out at 100 fold.

In assay [3], B2 showed a Kd of approximately 10 nM and a Ki of approximately 20 nM.

The values are drawn from patent publication US20140294844A1 (published 2014).
